Results taken from patent US20030096741A1, “Enhanced mineral delivery” (priority 2000, published 2003).
Like-named read-outs stand apart in the source and are kept apart here. Square brackets hold non-standard residues; d marks the D form. Ends that are not written are not given here. pS = N[C@@H](COP(=O)(O)O)C(=O)O

Experiments:
[1] = 3P motif versus 2P motif; cited from earlier work
[2] = tested on: bone specific gravity (femurs and tibias); experiment: Bone specific gravity in growing rats fed a high sucrose diet; assay type: in vivo, Sprague-Dawley rats; details: high sucrose diet for 5 weeks, 6.25 or 3.125 mmol/kg of diet, both groups
Text: A high sucrose diet is associated with a decrease in bone specific gravity in growing rats (reflecting reduced calcium and phosphorous content). See J. Nutr. 128:1807-1810 (1998). This decrease in bone density is reversed or prevented by carbamoyl phosphate supplementation. Sprague-Dawley rats were fed a high sucrose diet for 5 weeks, supplemented with carbarnoyl phosphate at either 6.25 or 3.125 mmol/kg of diet. […] Thus, carbamoyl phosphate modifies the effect of a high sucrose diet on bone growth.

[3] = cited from earlier work
[4] = calcium binding, human β-CN variants by number of phosphorylated Ser residues, calculated from published binding studies, read-out: Average dissociation Constant

## 3P variant: Reynolds (WO 98/40406) 3P variant having the sequence motif SerP-SerP-SerP-Glu-Glu (SEQ ID NO: 1) ([pS][pS][pS]EE)
[1]
  calcium and phosphate binding strength relative to 2P synthetic homologues having the motif SerP-SerP-Glu-Glu: 2.5 times

## NC(=O)OP(=O)(O)O [carbamoyl phosphate]
[2]
  specific gravities of femurs and tibias versus control rats receiving standard lab chow: not significantly different
  specific gravities of femurs and tibias versus rats on the same diet without carbamoyl phosphate: significantly higher

B1: bovine β-CN: Bovine beta-casein (protein, UniProt P02666 16-224, looked up)
Beta-casein: RELEELNVPGEIVESLSSSEESITRINKKIEKFQSEEQQQTEDELQDKIHPFAQTQSLVYPFPGPIPNSLPQNIPPLTQTPVVVPPFLQPEVMGVSKVKEAMAPKHKEMPFPKYPVEPFTESQSLTLTDVENLHLPLPLLQSWMHQPHQPLPPTVMFPPQSVLSLSQSKVLPVPQKAVPYPQRDMPIQAFLLYQEPVLGPVRGPFPIIV
[3]; bovine β-CN, read-out: calcium dissociation constant
  Kd: 650 µM

B2: 4P: Human β-CN variant with four SerP residues, all three Ser in the target sequence phosphorylated (protein, UniProt P05814 16-226, looked up)
Beta-casein: RETIESLSSSEESITEYKQKVEKVKHEDQQQGEDEHQDKIYPSFQPQPLIYPFVEPIPYGFLPQNILPLAQPAVVLPVPQPEIMEVPKAKDTVYTKGRVMPVLKSPTIPFFDPQIPKLTDLENLHLPLPLLQPLMQQVPQPIPQTLALPPQPLWSVPQPKVLPIPQQVVPYPQRAVPVQALLLNQELLLNPTHQIYPVTQPLAPVHNPISV
modifications: four phosphoserines
[3]; [4]
  Kd: 810 µM

B3: 3P: Human β-CN variant with three phosphorylated Ser residues (protein, UniProt P05814 16-226, looked up)
Beta-casein: B2 Beta-casein
modifications: three phosphoserines
notes: Human β-CN variant with three phosphorylated Ser residues
[3]; [4]
  Kd: 860 µM

B4: 5P: Human β-CN variant with five phosphorylated Ser residues (protein, UniProt P05814 16-226, looked up)
Beta-casein: B2 Beta-casein
modifications: five phosphoserines
notes: Human β-CN variant with five phosphorylated Ser residues
[3]; [4]
  Kd: 420 µM

B5: 1P: Human β-CN variant with one phosphorylated Ser residue (protein, UniProt P05814 16-226, looked up)
Beta-casein: B2 Beta-casein
modifications: one phosphoserine
notes: Human β-CN variant with one phosphorylated Ser residue
[3]; [4]
  Kd: 1170 µM

B6: 2P: Human β-CN variant with two SerP residues, only two of three Ser in the target sequence phosphorylated (protein, UniProt P05814 16-226, looked up)
Beta-casein: B2 Beta-casein
modifications: two phosphoserines
[3]; [4]
  Kd: 1210 µM
